Laboratory results as given in the supplement of paper PMC9170038.

System: MS2 coat protein
Test: apparent KD of MS2 coat protein; designed switch direction (-1 OFF switch, 1 ON switch): 1; higher = weaker reporter binding
Summary of the method: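 Designed RNA switches with common flanks were made on Illumina chips by stalled E. coli RNA polymerase. Titration with SNAP-549-labelled MS2 coat protein doubled from 0.7 or 1.5 nM up to 3 µM. Apparent KD is each design's median over clusters after curve-fitting normalised fluorescence.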

[1] = input ligand: microRNA oligo, concentration not stated
[2] = Eterna round: R95, input ligand: FMN 200 uM
[3] = Eterna round: R95, input ligand: microRNA oligo, concentration not stated
[4] = Eterna round: R95, input ligand: none

Sequence | apparent KD of MS2 coat protein [1] [nM] | apparent KD of MS2 coat protein (input ligand: FMN 200 uM) [nM] | apparent KD of MS2 coat protein (input ligand: none) [nM] | apparent KD of MS2 coat protein [2] [nM] | apparent KD of MS2 coat protein [3] [nM] | apparent KD of MS2 coat protein [4] [nM]
ACAUGAGGAUCACCCAUGUAUAGAUUUGAAUGUUAAGUUACGUAGGAUAUCGUGUUUAGUAUGAUCGAGAAGGACGAUCUGAUA [JR_SSNG3_Sub066] (Eterna round: R96, puzzle: Same State NG 3) | 18.6 | – | – | – | – | –
ACAUGAGAGCGAGGAUAUAUUGUACCUACAUGUGACAUGAGGAUCACCCAUGUGGUAAGUAUGACAUAGAAGGCGCAGAUAUGU [Equivalance 91 - Jieux - Same State NG 2] (Eterna round: R96, puzzle: Same State NG 2) | 27.8 | 21.4 | 33.7 | – | – | –
GUGGUCAGACAUGAGGAUCACCCAUGUGGAAUAAAUAACGGUGAGGAUAUGCAAUAUAGGAUAUAGUAGAAGGCAUGAUUGGUG (Eterna round: R96, puzzle: Same State NG 3) | 104 | 164 | 132 | – | – | –
UCUUGGUUUUUGCUCGUUUUUUGUGUUGAACAUGAGGAUCACCCAUGUAUUGUACGGUCCAAUUUAAUAAUGGUCCG [JMF 23] (puzzle: Sensor for hsa-mir-208a) | – | – | – | 26.3 | 14.3 | 26.9
GUGAGAUGUUCAGGAUAUUUCAGGAUAGUUAAUCCAAGGCCAUCACAUGAGGAUCACCCAUGUCGAGAGAAGGGAAUUCUCAGG [Eternabot solution 43] (Eterna round: R96, puzzle: Same State NG 2) | 331 | 378 | 433 | – | – | –
GGUAUACAUGAGGAUCACCCAUGUCGUAUGACAUGAGGAUAUGUACAGACUUCGGUCUGUACAGAAGGCGUGUGUC [SS1 - 1011 Omei Mod 6] (puzzle: Same State 1) | – | – | – | – | 307 | –
GUGUUACAUGAGGAUCACCCAUGUUGUUGUAGAUAAGGAUAUAUGGGAACGAGAGAAAUAAUAGAAGGUAUUAGGC [JR_SS1_Sub060] (puzzle: Same State 1) | – | – | – | – | 77.4 | –
GAGCUCGUGUGAGGAUAUGCCGCCGUUUCGGCUGCAGAAGGUGCUACGUUACAUGAGGAUCACCCAUGUCUCUGUUGUUUCGUU [salish99_SSNG1_r04_959] (Eterna round: R96, puzzle: Same State NG 1) | 17 | 18.5 | 24.9 | – | – | –
AAUUAAUUAAUUAAUAUACAUGAGGAUCACCCAUGUAAGAUCAAGGAUAUCAGCUCGAAUAGAGCUGAGAAGGUGAUCACAUGU [SSNG3/16-A1] (Eterna round: R96, puzzle: Same State NG 3) | 251 | – | – | – | – | –
GCGAAAGCCGUAGGAUAUGUAGGAUAUGGCGAGAGCUAAGCUUGGAAGUCACUUCAGCCAGAAGGACAGAAGGACGCCGAAAGG [pwkr ssNG2 2FMN + F9.15] (Eterna round: R96, puzzle: Same State NG 2) | 387 | 1410 | 46.2 | – | – | –
UUGAUUAGAAGUUAACAUGAGGAUCACCCAUGUAUUGGAUCAGAGGAUAUGCAUGUUUGAUAGUAGCAGAAGGCUGAUGGUGGA [JR_SSNG3_Sub026] (Eterna round: R96, puzzle: Same State NG 3) | 39.8 | – | – | – | – | –
CGACGCACGGCAGGAUAUCGAUUCCAAAGGAAUCGAGAAGGGCCUCAUGUCGUGGAAACGUGACAUGAGGAUCACCCAUGUUGC [Omei SS(NG)1 Cv19] (Eterna round: R96, puzzle: Same State NG 1) | 9.29 | 115 | 27.9 | – | – | –
UGAAUAGUUACAGGAUAUCAUGCGAAAAUUGCGUGAGAAGGGUGGGUGUUGUGCGCUAAGUGCCACAUGAGGAUCACCCAUGUU [SameState NG1 #38] (Eterna round: R96, puzzle: Same State NG 1) | 7.1 | 44.5 | 25.6 | – | – | –
GUACAUAUUAUAGGAUAUCACGUCGUUUAGACGUGAGAAGGAUAAUCCCACAUGAAUAUUAAUACAUGAGGAUCACCCAUGUAC [SSNG1/18-A3] (Eterna round: R96, puzzle: Same State NG 1) | 48 | 64.2 | 63.9 | – | – | –
AACAAUCUAUCUGAGGAUAUCAUGAAAUAAACAUGAGGAUCACCCAUGUGCAGGAAAACUGCAUAUGAGAAGGCAUAUAGAUUGA [salish99_ss2_r3_052] (puzzle: Same State 2) | – | – | – | 63.7 | 465 | 1560
GGCUAGGAUAUCUGCAGGAUCACCGCGGAGAAGGAGCUAAGCUAGGAUAUCCGCAGGAUCACCGCGGAGAAGGAGCAUCAUCUC [pwkr ssNG3 DX 2xF5 +2xFMN.16] (Eterna round: R96, puzzle: Same State NG 3) | 123 | 135 | 429 | – | – | –

Sequence | apparent KD of MS2 coat protein [1] [nM] | apparent KD of MS2 coat protein (input ligand: FMN 200 uM) [nM] | apparent KD of MS2 coat protein (input ligand: none) [nM] | apparent KD of MS2 coat protein [2] [nM] | apparent KD of MS2 coat protein [3] [nM] | apparent KD of MS2 coat protein [4] [nM]
CUAUCUACAGGUGUCAGUGCUCGUCUUAUACAUGAGGAUCACCCAUGUUAUAGCCCGGUGCUUGCGCUGGGCUGAUU [JL ViennaUCT Tearor mod 4] (puzzle: Sensor for hsa-mir-208a) | – | – | – | 54.8 | 14.2 | 66.9
AUUGCUAUCACAGGAUAUCAUGCGGAAAUCGCGUGAGAAGGGUGGACUCUGUCAUUCACGGAGGACAUGAGGAUCACCCAUGUC [SS NG10LRO17] (Eterna round: R96, puzzle: Same State NG 1) | 18.4 | 612 | 36.3 | – | – | –
CACGCCUCGGUAGGAUAUGAGGUGCCAUAGGCAACAGCCUAUGGACAUGAGGAUCACCCAUGUCCUCAGAAGGGCCAGGCGUGA [Rexeorar] (Eterna round: R96, puzzle: Same State NG 2) | 66.3 | 25.9 | 114 | – | – | –
UAAGGACAUGAGGAUCACCCAUGUGCUUCAUAUGGAGAAUCUCAGGAUAUGCUGAGGAUCACCCAGCAGAAGGGAGAUCCGAGG (Eterna round: R96, puzzle: Same State NG 3) | 93 | 71.9 | 120 | – | – | –
AGAUCAUGACGAGGAUAUGCAACAUGAGGAUCACCCAUGUAUGUUGCAGGACGCGUACGUCCAAUGUAGAAGGCGUCGUGGUCA [JL SSNG2 1.06] (Eterna round: R96, puzzle: Same State NG 2) | 146 | 40.2 | 150 | – | – | –
CCGUUGAUAGGACAGGAUAUGACUGUCGUCACAUGAGGAUCACCCAUGUCCCGGCAAUGCCACCGUUAGAAGGGUCCCGUCUCGG [Beenraor] (puzzle: Same State 2) | – | – | – | – | 16.9 | –
GCUGGAACUCACAUGAGGAUCACCCAUGUUCCGGAAACGGCACAGGAUAUCUGUCCGAAAAGGUCAGAGAAGGGUGUAACCAGC [Fiskers NG3ss - 87] (Eterna round: R96, puzzle: Same State NG 3) | 51 | 137 | 88.8 | – | – | –
ACAGCGAAACAUGAGGAUCACCCAUGUAAAGAAUAGGUGAAUUGUUGCUCGUCUUGAAGAGAAGAGAAGAAGGAGAG [Victory 1] (puzzle: Sensor for hsa-mir-208a version 2) | – | – | – | 192 | 101 | 180
GUGGCCUAGGCACAGGAUAUGUUUCUCGUAACAUGAGGAUCACCCAUGUGCCUUUGAGAUUUUAUGCAGAAGGGUGCACGCCACG [JL Atiinbe mod 04] (Eterna round: R96, puzzle: Same State 2) | 214 | 21.1 | 425 | – | – | –
CGUCCGGCCUGUGCUGGCCGGUGGCUUGUACAUGAGGAUCACCCAUGUUCUUGUGCUGGCUGUUUGCUCGUCUUGUG [salish99_mir208a_r3_021] (puzzle: Sensor for hsa-mir-208a) | – | – | – | 50.2 | 22.6 | 61.2
UUCUCAUUUACAUGAGGAUCACCCAUGUUUUUUUGUCAGAGAUAGGAUAUAGUUCUCUCGUUUUUCUAGAAGGAUCUUUUUAUU [JR_SSNG3_Sub087] (Eterna round: R96, puzzle: Same State NG 3) | 53.2 | 79.7 | 71.7 | – | – | –
GGAAACAAGAGAGGAUAUGCAGAGGAUCACCCUGUAGAAGGCUCCCUAGAGAGGAUAUGCAGAGGAUCACCCUGCAGAAGGCUC [pwkr ssNG DX.18] (Eterna round: R96, puzzle: Same State NG 1) | 27.7 | 227 | 89.1 | – | – | –
GGUAUUAACACAGGAUAUGCUUACGAAACGUAAGCAGAAGGGUGGACAUGAGGAUCACCCAUGUUUGUACCAGGGCGUGAGCCC [JL SSNG1 1.71] (Eterna round: R96, puzzle: Same State NG 1) | 271 | 68.5 | 652 | – | – | –
GCCAUCGUAUGAGGAUAUGGCACCGUUUCGGUGCCAGAAGGCAUGUCAAUUGACAUGAGGAUCACCCAUGUAUUUUCGAUGGCA [JL Fiskers NG1ss - 33 mod 11] (Eterna round: R96, puzzle: Same State NG 1) | 385 | 74.6 | 779 | – | – | –
UUGAAUAAUUAAGGAUAUCGAGUCAAGAUGUUAAACAUGAGGAUCACCCAUGUGGGUUGCGGUAUCGAGAAGGUAAAUAAGAAG [Mat - Same State NG 2 - JL mod - D55] (Eterna round: R96, puzzle: Same State NG 2) | 19.6 | 26.6 | 42.5 | – | – | –
GAGGAACAUGAGGAUCACCCAUGUAGGAUGGGACAAGGAUAUGUAGAUAGCGGAGGAGAGACAGAAGGUGUAGGAA [JR_SS1_Sub053] (puzzle: Same State 1) | – | – | – | 354 | 431 | 483
